Target: T1, Y1R L26^NA/F28^NA mutant (printed L28^NA/F28^NA) (human, UniProt P25929 1-384, L26^N to A (the mutant's label is printed L28^NA; the same sentence names the …)
T1 sequence (looked up): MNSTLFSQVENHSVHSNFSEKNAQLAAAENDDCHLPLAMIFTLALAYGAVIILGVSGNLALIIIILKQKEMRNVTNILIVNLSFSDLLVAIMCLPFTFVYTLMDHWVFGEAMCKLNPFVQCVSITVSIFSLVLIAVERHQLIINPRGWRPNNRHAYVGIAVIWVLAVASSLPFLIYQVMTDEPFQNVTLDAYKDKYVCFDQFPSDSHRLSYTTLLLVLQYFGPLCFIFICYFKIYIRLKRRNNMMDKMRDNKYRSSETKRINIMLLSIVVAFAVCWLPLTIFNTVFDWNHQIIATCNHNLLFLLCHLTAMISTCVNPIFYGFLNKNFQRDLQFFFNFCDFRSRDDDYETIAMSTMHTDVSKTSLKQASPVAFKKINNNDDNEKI
Test: cell-based or functional assay

B1: neuropeptide Y (NPY) (peptide)
peptide: not shown
modifications: C-terminal amide (amidated C-terminal residue Y36)
In the case of B1, the “NPY signalling, increase in EC50 against wild-type Y1R” value is reported as 2.8 fold.
